{"source": "patent US20190359653A1", "about": "“SELECTIVE PEPTIDE INHIBITORS OF FRIZZLED” (Genentech, Inc., priority 2016, published 2019)", "target": "FZD7 class proteins", "assay": "ELISA of biotinylated Wnt binding to FZD CRD-Fc with or without peptide", "data": [{"binder": "Biotinylated Wnt5a (ligand, Biotinylated with the Pierce reagent cat no. 21338; the positions are not stated and the letters are unchanged. The lipid modification of Wnt (fatty acyl moiety) is not carried by the letters.) IIGAQPLCSQLAGLSQGQKKLCHLYQDHMQYIGEGAKTGIKECQYQFRHRRWNCSTVDNTSVFGRVMQIGSRETAFTYAVSAAGVVNAMSRACREGELSTCGCSRAARPKDLPRDWLWGGCGDNIDYGYRFAKEFVDARERERIHAKGSYESARILMNLHNNEAGRRTVYNLADVACKCHGVSGSCSLKTCWLQLADFRKVGDALKEKYDSAAAMRLNSRGKLVQVNSRFNSPTTQDLVYIDPSPDYCVRNESTGSLGTQGRLCNKTSEGMDGCELMCCGRGYDQFKTVQTERCHCKFHWCCYVKCKKCTEIVDQFVCK", "values": [{"measurement": "fold enhancement of binding by Fz7-21 or dFz7-21", "result": "1.5 to 2", "unit": "fold"}]}]}
